The supplement of paper PMC11246515
± gives the standard deviation of the averaged measurements.

Experiment: total protein half-life in vivo (active degradation + dilution); higher = more stable protein
[1] = E. coli NCM3722 delta-clpP delta-lon delta-hslV, growth: N-lim chemostat, doubling time 6 h
[2] = E. coli NCM3722 delta-clpP, growth: N-lim chemostat, doubling time 6 h
[3] = E. coli NCM3722 delta-hslV, growth: N-lim chemostat, doubling time 6 h
[4] = E. coli NCM3722 delta-lon, growth: N-lim chemostat, doubling time 6 h
[5] = E. coli NCM3722 delta-smpB, growth: N-lim chemostat, doubling time 6 h
[6] = wild type E. coli NCM3722, growth: C-lim chemostat, doubling time 3 h
[7] = wild type E. coli NCM3722, growth: C-lim chemostat, doubling time 12 h
[8] = wild type E. coli NCM3722, growth: P-lim chemostat, doubling time 6 h
[9] = wild type E. coli NCM3722, growth: P-lim chemostat, doubling time 12 h
[10] = wild type E. coli NCM3722, growth: C-lim chemostat, doubling time 6 h
[11] = wild type E. coli NCM3722, growth: N-lim chemostat, doubling time 6 h
[12] = wild type E. coli NCM3722, growth: N-lim chemostat, doubling time 12 h

| Sequence | total protein half-life in vivo [1] | total protein half-life in vivo [2] | total protein half-life in vivo [3] | total protein half-life in vivo [4] | total protein half-life in vivo [5] | total protein half-life in vivo [6] | total protein half-life in vivo [7] | total protein half-life in vivo [8] | total protein half-life in vivo [9] | total protein half-life in vivo [10] | total protein half-life in vivo [11] | total protein half-life in vivo [12] |
| --- | --- | --- | --- | --- | --- | --- | --- | --- | --- | --- | --- | --- |
| MQQQKPLEGAQLVIMTIALSLATFMQVLDSTIANVAIPTIAGNLGSSLSQGTWVITSFGVANAISIPLTGWLAKRVGEVKLFLWSTIAFAIASWACGVSSSLNMLIFFRVIQGIVAGPLIPLSQSLLLNNYPPAKRSIALALWSMTVIVAPICGPILGGYISDNYHWGWIFFINVPIGVAVVLMTLQTLRGRETRTERRRIDAVGLALLVIGIGSLQIMLDRGKELDWFSSQEIIILTVVAVVAICFLIVWELTDDNPIVDLSLFKSRNFTIGCLCISLAYMLYFGAIVLLPQLLQEVYGYTATWAGLASAPVGIIPVILSPIIGRFAHKLDMRRLVTFSFIMYAVCFYWRAYTFEPGMDFGASAWPQFIQGFAVACFFMPLTTITLSGLPPERLAAASSLSNFTRTLAGSIGTSITTTMWTNRESMHHAQLTESVNPFNPNAQAMYSQLEGLGMTQQQASGWIAQQITNQGLIISANEIFWMSAGIFLVLLGLVWFAKPPFGAGGGGGGAH [P0AEJ0] | 7.36 h | 6.64 ± 0.3 h | 6.52 ± 0.46 h | 5.94 h | 5.55 ± 0.64 h | 3.78 h | > 16 h | 5.89 h | 10.4 ± 0.82 h | – | – | – |
| MAFKIWQIGLHLQQQEAVAVAIVRGAKECFLQRWWRLPLENDIIKDGRIVDAQQLAKTLLPWSRELPQRHHIMLAFPASRTLQRSFPRPSMSLGEREQTAWLSGTMARELDMDPDSLRFDYSEDSLSPAYNVTAAQSKELATLLTLAERLRVHVSAITPDASALQRFLPFLPSHQQCLAWRDNEQWLWATRYSWGRKLAVGMTSAKELAAALSVDPESVAICGEGGFDPWEAVSVRQPPLPPPGGDFAIALGLALGKAY | 4.83 h | 3.81 h | 2.84 h | – | 2.82 ± 0.24 h | – | 11.7 ± 1.8 h | 3.857 ± 0.0092 h | 8.02 h | – | – | – |
| MARARGRGRRDLKSEINIVPLLDVLLVLLLIFMATAPIITQSVEVDLPDATESQAVSSNDNPPVIVEVSGIGQYTVVVEKDRLERLPPEQVVAEVSSRFKANPKTVFLIGGAKDVPYDEIIKALNLLHSAGVKSVGLMTQPI [P0ABV6] | – | 5.42 ± 0.13 h | 6.44 ± 0.99 h | 5.7 ± 0.25 h | 5.74 ± 0.59 h | 3.106 ± 0.028 h | 11.9 ± 0.7 h | 5.45 ± 0.66 h | 11.81 ± 0.036 h | 5.686 ± 0.01 h | 5.73 ± 0.26 h | 12.6 ± 0.73 h |
| MSKSENLYSAARELIPGGVNSPVRAFTGVGGTPLFIEKADGAYLYDVDGKAYIDYVGSWGPMVLGHNHPAIRNAVIEAAERGLSFGAPTEMEVKMAQLVTELVPTMDMVRMVNSGTEATMSAIRLARGFTGRDKIIKFEGCYHGHADCLLVKAGSGALTLGQPNSPGVPADFAKYTLTCTYNDLASVRAAFEQYPQEIACIIVEPVAGNMNCVPPLPEFLPGLRALCDEFGALLIIDEVMTGFRVALAGAQDYYGVVPDLTCLGKIIGGGMPVGAFGGRRDVMDALAPTGPVYQAGTLSGNPIAMAAGFACLNEVAQPGVHETLDELTTRLAEGLLEAAEEAGIPLVVNHVGGMFGIFFTDAESVTCYQDVMACDVERFKRFFHMMLDEGVYLAPSAFEAGFMSVAHSMEDINNTIDAARRVFAKL | 6.35 ± 2.3 h | 4.99 ± 0.35 h | 5 ± 0.21 h | 5.33 ± 0.43 h | 3.93 ± 0.1 h | 3.45 ± 0.48 h | 11.3 ± 1.3 h | 5.51 ± 0.059 h | 12.6 ± 0.035 h | 7.43 ± 0.21 h | 4.57 ± 0.2 h | 7.897 ± 0.015 h |
| MKYSLGPVLWYWPKETLEEFYQQAATSSADVIYLGEAVCSKRRATKVGDWLEMAKSLAGSGKQIVLSTLALVQASSELGELKRYVENGEFLIEASDLGVVNMCAERKLPFVAGHALNCYNAVTLKILLKQGMMRWCMPVELSRDWLVNLLNQCDELGIRNQFEVEVLSYGHLPLAYSARCFTARSEDRPKDECETCCIKYPNGRNVLSQENQQVFVLNGIQTMSGYVYNLGNELASMQGLVDVVRLSPQGTDTFAMLDAFRANENGAAPLPLTANSDCNGYWRRLAGLELQA | 3.35 h | – | – | – | – | – | – | – | – | – | – | – |
| MTENIHKHRILILDFGSQYTQLVARRVRELGVYCELWAWDVTEAQIRDFNPSGIILSGGPESTTEENSPRAPQYVFEAGVPVFGVCYGMQTMAMQLGGHVEASNEREFGYAQVEVVNDSALVRGIEDALTADGKPLLDVWMSHGDKVTAIPSDFITVASTESCPFAIMANEEKRFYGVQFHPEVTHTRQGMRMLERFVRDICQCEALWTPAKIIDDAVARIREQVGDDKVILGLSGGVDSSVTAMLLHRAIGKNLTCVFVDNGLLRLNEAEQVLDMFGDHFGLNIVHVPAEDRFLSALAGENDPEAKRKIIGRVFVEVFDEEALKLEDVKWLAQGTIYPDVIESAASATGKAHVIKSHHNVGGLPKEMKMGLVEPLKELFKDEVRKIGLELGLPYDMLYRHPFPGPGLGVRVLGEVKKEYCDLLRRADAIFIEELRKADLYDKVSQAFTVFLPVRSVGVMGDGRKYDWVVSLRAVETIDFMTAHWAHLPYDFLGRVSNRIINEVNGISRVVYDISGKPPATIEWE | 5.07 ± 0.67 h | 4.31 ± 0.18 h | 4.02 ± 0.45 h | 4.39 ± 0.049 h | 4.28 ± 0.17 h | 3.24 ± 0.23 h | 9.65 ± 0.23 h | 6.09 ± 0.26 h | 12.3 ± 0.98 h | 5.93 ± 0.12 h | 4.17 ± 0.46 h | 6.57 ± 0.082 h |
